Data on five variants can be found in IntAct's records for PubMed 25910212.

B1: Adenosylhomocysteinase (Homo sapiens), P23526 (parent)
chain: MSDKLPYKVADIGLAAWGRKALDIAENEMPGLMRMRERYSASKPLKGARIAGCLHMTVETAVLIETLVTLGAEVQWSSCNIFSTQDHAAAAIAKAGIPVYAWKGETDEEYLWCIEQTLYFKDGPLNMILDDGGDLTNLIHTKYPQLLPGIRGISEETTTGVHNLYKMMANGILKVPAINVNDSVTKSKFDNLYGCRESLIDGIKRATDVMIAGKVAVVAGYGDVGKGCAQALRGFGARVIITEIDPINALQAAMEGYEVTTMDEACQEGNIFVTTTGCIDIILGRHFEQMKDDAIVCNIGHFDVEIDVKWLNENAVEKVNIKPQVDRYRLKNGRRIILLAEGRLVNLGCAMGHPSFVMSNSFTNQVMAQIELWTHPDKYPVGVHFLPKKLDEAVAEAHLGKLNVKLTKLTEKQAQYLGMSCDGPFKPDHYRY
B2: Cyclin-dependent kinase 4 inhibitor C (Homo sapiens), P42773 (parent)
chain: MAEPWGNELASAAARGDLEQLTSLLQNNVNVNAQNGFGRTALQVMKLGNPEIARRLLLRGANPDLKDRTGFAVIHDAARAGFLDTLQTLLEFQADVNIEDNEGNLPLHLAAKEGHLRVVEFLVKHTASNVGHRNHKGDTACDLARLYGRNEVVSLMQANGAGGATNLQ
B3: EF-hand domain-containing protein 1 (Homo sapiens), Q5JVL4 (parent)
chain: MVSNPVHGLPFLPGTSFKDSTKTAFHRSQTLSYRNGYAIVRRPTVGIGGDRLQFNQLSQAELDELASKAPVLTYGQPKQAPPADFIPAHVAFDKKVLKFDAYFQEDVPMSTEEQYRIRQVNIYYYLEDDSMSVIEPVVENSGILQGKLIKRQRLAKNDRGDHYHWKDLNRGINITIYGKTFRVVDCDQFTQVFLESQGIELNPPEKMALDPYTELRKQPLRKYVTPSDFDQLKQFLTFDKQVLRFYAIWDDTDSMYGECRTYIIHYYLMDDTVEIREVHERNDGRDPFPLLMNRQRVPKVLVENAKNFPQCVLEISDQEVLEWYTAKDFIVGKSLTILGRTFFIYDCDPFTRRYYKEKFGITDLPRIDVSKREPPPVKQELPPYNGFGLVEDSAQNCFALIPKAPKKDVIKMLVNDNKVLRYLAVLESPIPEDKDRRFVFSYFLATDMISIFEPPVRNSGIIGGKYLGRTKVVKPYSTVDNPVYYGPSDFFIGAVIEVFGHRFIILDTDEYVLKYMESNAAQYSPEALASIQNHVRKREAPAPEAESKQTEKDPGVQELEALIDTIQKQLKDHSCKDNIREAFQIYDKEASGYVDRDMFFKICESLNVPVDDSLVKELIRMCSHGEGKINYYNFVRAFSN

Variants of B1 are the subject of the first test. The settings on record: with ca050_human C1orf50, Q9BV19.
ca050_human C1orf50, Q9BV19, sequence (Q9BV19 whole entry): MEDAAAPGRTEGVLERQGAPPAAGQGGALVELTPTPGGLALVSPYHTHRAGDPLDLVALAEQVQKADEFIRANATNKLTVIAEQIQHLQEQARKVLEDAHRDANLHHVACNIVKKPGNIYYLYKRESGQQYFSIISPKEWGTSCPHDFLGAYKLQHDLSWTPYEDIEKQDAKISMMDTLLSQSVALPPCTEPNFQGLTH
With Y143C, the “effect of a mutation on the interaction” value is “with no effect”.
The same measure, in the same setting: for D86G the value was “with no effect”.

In another test the parent is B1. Particulars: with ca050_human C1orf50, Q9BV19. This is another data set of the same source.
In the case of D86G, the “effect of a mutation on the interaction” value is recorded as “disrupting interaction strength”.

Variants of B2 are the subject of another test. Particulars: with cdk6_human CDK6, Q00534.
Regarding V31L, the “effect of a mutation on the interaction” value is on record as “with no effect”.

In a further test the parent is B2. Particulars: with TCF12, Q99081-3.
Turning to V31L, the “effect of a mutation on the interaction” value is “disrupting interaction strength”.

Variants of B2 are the subject of another test. Particulars: with NAGK.
For V31L, the “effect of a mutation on the interaction” value was “disrupting interaction strength”.

A further test covers variants of B2. Particulars: with sahh2_human AHCYL1, O43865.
Turning to V31L, the “effect of a mutation on the interaction” value is reported as “disrupting interaction strength”.

The variants in the next test derive from B2. The settings on record: with TCF4, P15884-3.
Target sequence in this assay (P15884 other isoform, or with tags, fused parts or gaps): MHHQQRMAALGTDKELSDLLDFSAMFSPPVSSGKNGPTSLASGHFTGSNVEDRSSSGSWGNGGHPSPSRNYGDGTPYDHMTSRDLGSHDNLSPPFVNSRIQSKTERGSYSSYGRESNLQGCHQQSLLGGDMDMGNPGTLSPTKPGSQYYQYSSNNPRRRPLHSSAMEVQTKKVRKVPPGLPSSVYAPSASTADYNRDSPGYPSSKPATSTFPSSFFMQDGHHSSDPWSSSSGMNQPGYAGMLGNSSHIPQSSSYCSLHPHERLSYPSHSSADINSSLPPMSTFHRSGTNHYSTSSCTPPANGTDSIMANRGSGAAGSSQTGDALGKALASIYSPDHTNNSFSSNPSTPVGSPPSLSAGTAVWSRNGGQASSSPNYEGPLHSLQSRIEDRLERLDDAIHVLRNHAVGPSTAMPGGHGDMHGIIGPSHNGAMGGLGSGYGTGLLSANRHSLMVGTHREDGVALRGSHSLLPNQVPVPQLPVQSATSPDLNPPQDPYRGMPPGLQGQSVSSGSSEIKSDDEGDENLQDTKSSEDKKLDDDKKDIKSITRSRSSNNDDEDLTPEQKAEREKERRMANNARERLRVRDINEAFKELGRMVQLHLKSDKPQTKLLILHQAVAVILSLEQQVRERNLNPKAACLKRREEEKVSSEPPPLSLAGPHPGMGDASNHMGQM
On to V31L, for which the “effect of a mutation on the interaction” value is given as “disrupting interaction strength”.

Variants of B3 are the subject of the next test. The settings on record: with ikzf3_human IKZF3, Q9UKT9.
Turning to A394S, the “effect of a mutation on the interaction” value is recorded as “disrupting interaction strength”.
On the same count and under the same terms, then R159W, with “with no effect”.

In the next test the parent is B3. Particulars: with kctd4_human KCTD4, Q8WVF5.
kctd4_human KCTD4, Q8WVF5, sequence (Q8WVF5 whole entry): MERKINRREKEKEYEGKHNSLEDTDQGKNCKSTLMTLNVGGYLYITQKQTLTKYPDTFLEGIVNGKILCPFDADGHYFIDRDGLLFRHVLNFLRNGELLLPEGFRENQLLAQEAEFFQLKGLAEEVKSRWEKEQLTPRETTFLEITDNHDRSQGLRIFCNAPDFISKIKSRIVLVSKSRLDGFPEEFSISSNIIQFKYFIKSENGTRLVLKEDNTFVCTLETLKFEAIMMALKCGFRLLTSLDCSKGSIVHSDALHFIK
In the case of A394S, the “effect of a mutation on the interaction” value is “disrupting interaction strength”.
Still for that read-out and setting: then R159W, with “with no effect”.

The variants in another test derive from B3. Particulars: with rim3a_human RIMBP3, Q9UFD9.
rim3a_human RIMBP3, Q9UFD9, sequence (Q9UFD9 whole entry): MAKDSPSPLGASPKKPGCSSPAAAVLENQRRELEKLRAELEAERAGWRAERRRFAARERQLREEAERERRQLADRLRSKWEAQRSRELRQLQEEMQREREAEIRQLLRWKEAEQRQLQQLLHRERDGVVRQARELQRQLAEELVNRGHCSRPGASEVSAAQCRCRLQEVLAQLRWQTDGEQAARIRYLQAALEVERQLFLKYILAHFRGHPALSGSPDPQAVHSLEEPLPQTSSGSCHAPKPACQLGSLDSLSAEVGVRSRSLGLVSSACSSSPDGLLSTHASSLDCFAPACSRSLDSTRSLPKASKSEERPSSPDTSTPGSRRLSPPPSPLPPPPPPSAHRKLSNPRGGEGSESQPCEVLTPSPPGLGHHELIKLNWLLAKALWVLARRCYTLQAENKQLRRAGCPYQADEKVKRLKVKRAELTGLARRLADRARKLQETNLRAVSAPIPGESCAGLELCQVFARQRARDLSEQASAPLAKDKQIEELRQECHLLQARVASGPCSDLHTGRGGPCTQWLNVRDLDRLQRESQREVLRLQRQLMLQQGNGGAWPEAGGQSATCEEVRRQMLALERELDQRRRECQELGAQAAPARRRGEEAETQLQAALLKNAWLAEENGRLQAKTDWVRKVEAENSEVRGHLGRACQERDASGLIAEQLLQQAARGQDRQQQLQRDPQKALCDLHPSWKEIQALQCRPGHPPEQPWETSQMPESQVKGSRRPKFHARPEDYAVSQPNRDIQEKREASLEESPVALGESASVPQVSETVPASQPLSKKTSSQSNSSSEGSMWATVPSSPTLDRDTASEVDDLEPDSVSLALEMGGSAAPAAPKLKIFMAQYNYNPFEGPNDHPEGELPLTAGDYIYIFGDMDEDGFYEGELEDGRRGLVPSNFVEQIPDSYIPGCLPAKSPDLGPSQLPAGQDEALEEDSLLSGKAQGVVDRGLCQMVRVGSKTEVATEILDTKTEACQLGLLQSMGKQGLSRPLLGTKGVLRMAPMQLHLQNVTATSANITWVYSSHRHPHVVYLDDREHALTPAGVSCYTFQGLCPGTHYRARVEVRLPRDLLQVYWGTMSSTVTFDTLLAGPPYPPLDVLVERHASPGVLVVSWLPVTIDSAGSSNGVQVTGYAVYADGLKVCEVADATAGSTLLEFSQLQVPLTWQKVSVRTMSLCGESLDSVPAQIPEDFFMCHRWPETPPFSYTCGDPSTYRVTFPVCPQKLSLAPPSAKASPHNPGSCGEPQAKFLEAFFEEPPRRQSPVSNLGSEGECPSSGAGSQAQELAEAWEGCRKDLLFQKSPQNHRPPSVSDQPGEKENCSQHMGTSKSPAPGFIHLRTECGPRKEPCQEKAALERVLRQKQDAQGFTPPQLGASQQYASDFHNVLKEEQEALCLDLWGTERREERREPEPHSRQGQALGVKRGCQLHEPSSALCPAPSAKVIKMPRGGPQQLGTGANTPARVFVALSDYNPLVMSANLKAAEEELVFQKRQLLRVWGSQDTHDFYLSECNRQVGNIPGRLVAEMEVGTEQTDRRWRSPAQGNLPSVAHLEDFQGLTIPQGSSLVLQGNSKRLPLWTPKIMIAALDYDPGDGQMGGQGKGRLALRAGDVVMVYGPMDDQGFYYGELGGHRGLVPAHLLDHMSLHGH
On to A394S, for which the “effect of a mutation on the interaction” value was “disrupting interaction strength”.
As for R159W, the “effect of a mutation on the interaction” value is recorded as “with no effect”.

Another test covers variants of B3. The settings on record: with trip6_human TRIP6, Q15654.
trip6_human TRIP6, Q15654, sequence (Q15654 whole entry): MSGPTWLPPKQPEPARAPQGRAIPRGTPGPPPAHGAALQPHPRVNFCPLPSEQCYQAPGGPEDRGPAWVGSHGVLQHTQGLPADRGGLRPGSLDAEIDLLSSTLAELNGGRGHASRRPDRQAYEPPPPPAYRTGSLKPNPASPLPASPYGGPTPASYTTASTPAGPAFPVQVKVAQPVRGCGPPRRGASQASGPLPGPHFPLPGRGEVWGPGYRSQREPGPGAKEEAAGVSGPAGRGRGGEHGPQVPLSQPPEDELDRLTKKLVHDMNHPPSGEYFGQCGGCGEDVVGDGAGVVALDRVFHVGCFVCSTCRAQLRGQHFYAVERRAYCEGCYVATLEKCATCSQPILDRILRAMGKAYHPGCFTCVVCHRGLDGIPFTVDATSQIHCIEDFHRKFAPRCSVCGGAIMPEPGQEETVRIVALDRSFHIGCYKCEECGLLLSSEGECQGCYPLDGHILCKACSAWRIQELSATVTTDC
Take A394S: the “effect of a mutation on the interaction” value is on record as “disrupting interaction strength”.
Still for that read-out and setting: for R159W the value was “with no effect”.

In another test the parent is B3. Particulars: with KRT15, P19012.
KRT15, P19012, sequence (P19012 whole entry): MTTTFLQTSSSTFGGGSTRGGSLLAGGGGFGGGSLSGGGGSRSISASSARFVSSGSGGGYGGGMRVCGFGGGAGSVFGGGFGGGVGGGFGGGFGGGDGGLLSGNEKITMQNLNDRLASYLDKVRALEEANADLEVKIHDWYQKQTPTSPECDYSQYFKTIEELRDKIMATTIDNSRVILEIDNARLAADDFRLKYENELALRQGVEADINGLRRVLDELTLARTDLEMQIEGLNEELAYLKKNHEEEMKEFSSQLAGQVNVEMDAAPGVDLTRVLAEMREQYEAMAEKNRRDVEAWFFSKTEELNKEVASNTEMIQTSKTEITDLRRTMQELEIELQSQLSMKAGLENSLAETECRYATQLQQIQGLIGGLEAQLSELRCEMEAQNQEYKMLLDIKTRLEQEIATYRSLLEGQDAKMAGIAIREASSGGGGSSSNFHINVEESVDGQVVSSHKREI
Take A394S: the “effect of a mutation on the interaction” value is recorded as “disrupting interaction strength”.
Still for that read-out and setting: then R159W, with “with no effect”.

The variants in a further test derive from B3. The settings on record: with TCF4, P15884-3.
Target sequence in this assay (P15884 other isoform, or with tags, fused parts or gaps): as the sequence (P15884 other isoform, or with tags, fused parts or gaps) above
Regarding A394S, the “effect of a mutation on the interaction” value is listed as “disrupting interaction strength”.
Still for that read-out and setting: then R159W, with “with no effect”.

Variants of B3 are the subject of a further test. Particulars: with goga2_human GOLGA2, Q08379.
goga2_human GOLGA2, Q08379, sequence (Q08379 whole entry): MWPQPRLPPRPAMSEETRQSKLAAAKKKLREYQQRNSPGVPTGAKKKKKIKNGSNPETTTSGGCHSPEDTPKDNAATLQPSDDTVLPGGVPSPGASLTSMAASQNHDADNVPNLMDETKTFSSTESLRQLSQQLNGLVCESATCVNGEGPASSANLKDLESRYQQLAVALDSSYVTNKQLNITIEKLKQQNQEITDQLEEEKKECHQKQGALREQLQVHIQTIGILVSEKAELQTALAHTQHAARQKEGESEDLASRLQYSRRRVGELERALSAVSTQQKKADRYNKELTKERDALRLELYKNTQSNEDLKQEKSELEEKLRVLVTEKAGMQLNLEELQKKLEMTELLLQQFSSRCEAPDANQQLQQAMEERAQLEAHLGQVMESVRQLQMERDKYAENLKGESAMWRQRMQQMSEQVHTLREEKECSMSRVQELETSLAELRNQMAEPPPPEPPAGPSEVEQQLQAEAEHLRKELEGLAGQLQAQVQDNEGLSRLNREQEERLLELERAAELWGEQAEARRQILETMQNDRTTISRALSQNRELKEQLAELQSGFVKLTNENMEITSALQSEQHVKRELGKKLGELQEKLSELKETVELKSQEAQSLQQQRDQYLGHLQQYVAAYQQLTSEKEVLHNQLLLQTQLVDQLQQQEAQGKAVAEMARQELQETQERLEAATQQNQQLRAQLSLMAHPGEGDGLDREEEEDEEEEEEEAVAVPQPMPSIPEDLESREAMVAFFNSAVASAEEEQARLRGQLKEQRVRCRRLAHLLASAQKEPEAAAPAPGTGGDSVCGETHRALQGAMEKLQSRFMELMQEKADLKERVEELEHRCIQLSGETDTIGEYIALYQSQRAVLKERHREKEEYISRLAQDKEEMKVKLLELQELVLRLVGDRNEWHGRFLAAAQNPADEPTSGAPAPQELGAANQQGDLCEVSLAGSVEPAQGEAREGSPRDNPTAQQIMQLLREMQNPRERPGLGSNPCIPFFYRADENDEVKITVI
Turning to A394S, the “effect of a mutation on the interaction” value was “disrupting interaction strength”.
On the same count and under the same terms, then R159W, with “with no effect”.
